These results are taken from patent publication US20050276799A1 (PDL BIOPHARMA, published 2005).

Assay [1] addresses T1, recombinant, GPI-linked human FcRn on cell line NS0 HuFcRn (memb), clone 7-3 (human, UniProt P55899 24-297; P61769 21-119).
T1 construct: Expressed from pDL208 on the surface of NS0 cells; also called human neonatal Fc receptor; not shown: human c-myc decapeptide flanked by linker peptides, then GPI linkage signal of human decay accelerating factor (vector p)
Put plainly: IC50 of wild-type / IC50 of this antibody, same assay.

The target in assay [2] is T1, recombinant, GPI-linked human FcRn on …. Described as above. The source holds these as a separate data set.
For assay [3] the target is unchanged. Description: competition FACS vs biotinylated HuEP5C7-IgG2M3 on NS0 cells expressing human FcRn, FSB pH 6.0.
The target is the same in assay [4]. Description: competition FACS vs biotinylated OST577-IgG2M3 on NS0 cells expressing human FcRn, FBB pH 6.0.
For assay [5], the target named is T2, recombinant, GPI-linked rhesus FcRn on cell line NS0 RhFcRn, clone R-3 (rhesus, UniProt H9Z6D2 24-297; Q6V7J5 21-119, GPI-linked).
T2 construct: Expressed from pDL410 on the surface of NS0 cells; not shown: human c-myc decapeptide flanked by linker peptides, then GPI linkage signal of human decay accelerating factor (vector p)
Description: IC50 of wild-type / IC50 of this antibody, same assay.

The target in assay [6] is T1, recombinant, GPI-linked human FcRn on …. The description is as above. The source holds these as a separate data set.
The target is the same in assay [7]. Put plainly: competition FACS vs biotinylated HuEP5C7-IgG2M3 on NS0 cells expressing human FcRn, FBB pH 6.0.
Assay [8] has the same target. Put plainly: competition FACS vs biotinylated human IgG on NS0 cells expressing human FcRn, FBB pH 6.0.
Assay [9] has the same target. Put plainly: IC50 of wild-type / IC50 of this antibody, same assay. The source holds these as a separate data set.
Assay [10] has the same target. The description is as above. This is another data set of the same source.
Assay [11] concerns the target T2, recombinant, GPI-linked rhesus FcRn on …. Described as above. The source holds these as a separate data set.

Positions count from the first letter of the chain named. Names may count otherwise. Where two headings read alike, the source gives them in different places.

B1: OST577-IgG2M3 wild-type (antibody)
heavy: QVQLVESGGGVVQPGRSLRLSCAASGFTFSRYGMHWVRQAPGKGLEWVAVISYDGSNKWYADSVKGRFTISRDNSKNTLFLQMHSLRAADTGVYFCAKDQLYFGSQSPGHYWGQGTLVTVSSASTKGPSVFPLAPCSRSTSESTAALGCLVKDYFPEPVTVSWNSGALTSGVHTFPAVLQSSGLYSLSSVVTVPSSNFGTQTYTCNVDHKPSNTKVDKTVERKCCVECPPCPAPPAAAPSVFLFPPKPKDTLMISRTPEVTCVVVDVSHEDPEVQFNWYVDGVEVHNAKTKPREEQFNSTFRVVSVLTVVHQDWLNGKEYKCKVSNKGLPAPIEKTISKTKGQPREPQVYTLPPSREEMTKNQVSLTCLVKGFYPSDIAVEWESNGQPENNYKTTPPMLDSDGSFFLYSKLTVDKSRWQQGNVFSCSVMHEALHNHYTQKSLSLSPSK
light: SYVLTQPPSVSVAPGQTARITCGGDNIGSKSVNWFQQKPGQAPVLVVYDDNERPSGISERFSGSNSGNTATLTISRVEAGDEADYYCQVWDSSSDHVVFGGGTKLTVLGQPKAAPSVTLFPPSSEELQANKATLVCLISDFYPGAVTVAWKADSSPVKAGVETTTPSKQSNNKYAASSYLSLTPEQWKSHRSYSCQVTHEGSTVEKTVAPTECS
notes: Human anti-HBV antibody, IgG2M3 (V234A, G237A) heavy, lambda-2 light
As to B1, the “Relative Binding” value in assay [1], in assay [2], in assay [5] and in assay [6] was 1 ratio each time. For the same molecule, the IC50 was 10.7 µg/mL in assay [3], 11.9 µg/mL in assay [4] and 9.4 µg/mL in assay [7].

B2: OST577-IgG2M3 M428F (antibody)
heavy: B1 heavy with M429F
light: B1 light
For B2, the figures for the “Relative Binding” value in assay [1] and in [2] were 3.2 ratio and 3.1 ratio, respectively. In addition, the results for the half-maximal inhibitory concentration (IC50) in [3] and in assay [7] were 3.4 µg/mL and 2.97 µg/mL, respectively.

B3: OST577-IgG2M3 T250E/M428F (antibody)
heavy: B1 heavy with T251E, M429F
light: B1 light
On to B3, for which the “Relative Binding” value in assay [1] is 15 ratio. For the same molecule, the IC50 in assay [7] came to 0.639 µg/mL.

B4: Dac-IgG1 wild-type (daclizumab) (antibody)
heavy: not shown
light: DIQMTQSPSTLSASVGDRVTITCSASSSISYMHWYQQKPGKAPKLLIYTTSNLASGVPARFSGSGSGTEFTLTISSLQPDDFATYYCHQRSTYPLTFGQGTKVEVKRTVAAPSVFIFPPSDEQLKSGTASVVCLLNNFYPREAKVQWKVDNALQSGNSQESVTEQDSKDSTYSLSSTLTLSKADYEKHKVYACEVTHQGLSSPVTKSFNRGEC
notes: Humanized anti-CD25; also called Dac-IgG1 WT
Turning to B4, in [8], the IC50 came out at 20.4 µg/mL. In addition, the “Relative Binding” value in assay [9] turned out to be 1 ratio.

B5: Dac-IgG1 T250Q/M428L (antibody)
heavy: not shown
light: B4 light
notes: also called T250Q/M428L daclizumab
As for B5, the IC50 in [8] stood at 0.626 µg/mL. Also, the “Relative Binding” value in assay [9] was determined as 33 ratio.

B6: Hu1D10-IgG4 wild-type (antibody)
heavy: not shown
light: DIQMTQSPSSLSASVGDRVTITCRASENIYSYLAWYQQKPGKAPKLLVSNAKTLAEGVPSRFSGSGSGKQFTLTISSLQPEDFATYYCQHHYGNSYPFGQGTKLEIKRTVAAPSVFIFPPSDEQLKSGTASVVCLLNNFYPREAKVQWKVDNALQSGNSQESVTEQDSKDSTYSLSSTLTLSKADYEKHKVYACEVTHQGLSSPVTKSFNRGEC
As to B6, the “Relative Binding” value in [10] and in assay [11] was 1 ratio throughout.

The IC50 is the point on the concentration scale where inhibition reaches its midpoint.
